Our source for the AC-SINS (wavelength of maximum absorbance relative to blank, nm) values is US20240076386.

The nature of this data set: AC-SINS self-interaction.

As to Polyreactivity negative control, the AC-SINS (wavelength of maximum absorbance relative to blank, nm) was found to be 1 nm.
